Reference: patent publication US20260028402A1

Target: HuCD100-His (human) (UniProt Q92854)
Test: cell-based or functional assay

- MDSC proportion (%) at 2.821 nM antibody: 27.1%
- MDSC proportion (%) at 8.463 nM antibody: 16.3%
- MDSC proportion (%) at 25.389 nM antibody: 8.29%
- MDSC proportion (%) at 76.166 nM antibody: 6.92%
- MDSC proportion (%) at 228.498 nM antibody: 6.97%
- MDSC proportion (%) at 685.495 nM antibody: 10.3%
B1: Pepinemab (antibody, INN chains, looked up, V domains shown)
VH: QVQLVQSGAEVKKPGSSVKVSCKASGYSFSDYYMHWVRQAPGQGLEWMGQINPTTGGASYNQKFKGKATITVDKSTSTAYMELSSLRSEDTAVYYCARYYYGRHFDVWGQGTTVTVSS
VL: DIVMTQSPDSLAVSLGERATINCKASQSVDYDGDSYMNWYQQKPGQPPKLLIYAASNLESGVPDRFSGSGSGTDFTLTISSLQAEDVAVYYCQQSNEDPYTFGQGTKLEIK
modifications: IgG4
